{"source": "patent US20250320282A1", "about": "(MABYLON, published 2025)", "data": [{"target": "T1, Ara h 6 (Arachis hypogaea allergen 6) (Arachis hypogaea, UniProt Q647G9 22-145)", "T1 construct": "Peanut allergen; also called Ara h 6.0101; nAra h 6", "T1 sequence": "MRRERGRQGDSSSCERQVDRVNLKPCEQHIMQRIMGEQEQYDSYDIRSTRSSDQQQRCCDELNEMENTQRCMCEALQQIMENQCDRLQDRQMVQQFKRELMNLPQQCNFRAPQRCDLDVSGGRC", "experiment": "ELISA, Fab titration on coated Ara h 6", "description": "Next, the effect of the engineered variable regions on antigen binding was tested. Briefly, ELISA plates were coated with respective Ara h proteins (Ara h 2:0.05 ug/ml, Ara h 6:0.1 ug/ml, Ara h 3 loop (2nd): 0.1 ug/ml) overnight at 4° C. Afterwards, plates were blocked with BSA (2% in PBS) for 1 hour at room temperature. Fab fragment titration series starting from 4 ug/ml was prepared, added to the single ELISA plate wells and incubated for 2 h at room temperature. The read-out was performed by adding anti-hu-kappa/lambda-HRP (anti-kappa Invitrogen (A18853) and anti-lambda abcam (ab99811) for 1 h at room temperature. Tetramethylbenzidine substrate solution (TMB, Sigma-Aldrich Chemie GmbH, Buchs, Switzerland) was added, then after 5 minutes of hydrolysis time, the reaction was stopped by the addition of 1 M H₂SO₄ and the absorbances were read at 450 nm.", "values": [{"binder": "MY006-2F8 Fab Hg (Fab, V domains shown, Germlined variant, IgG1-Fab format; also called 2F8 Hg) VH: EVQLVESGGGLVQPGGSLRLSCAASGFIFSDYNMNWVRQAPGKGLEWVSSITRSSRTIYYADSVKGRFTISRDNAKNSLYLQMNSLRDEDTAVYYCAREDFDVSTGPYYMDVWGKGTTVTVSS VL: EIVLTQSPGTLSLSPGERATLSCRASQSVSNMFLVWYQQKPGQAPRLLMYGASTRATDIPDRFSGSGSGTDFTLTISRLEPEDFAVYYCQQNGNSPYTFGQGTKLEIK", "binding result": "binds"}, {"binder": "MY006-2F8 Fab Lg (Fab, V domains shown, Germlined variant, IgG1-Fab format; also called 2F8 Lg) VH: EVQLVESGGGLVKPGGSLRLSCAASGFIFSDYNMNWVRQAPGKGLEWVSSITRSSRTIYYADSVKGRFTISRDNAKNSLHLQMNSLRDADTAVYYCAREDFDVSTGPYYMDVWGNGTTVIVSS VL: EIVLTQSPGTLSLSPGERATLSCRASQSVSNMFLVWYQQKPGQAPRLLMYGASTRATGIPDRFSGSGSGTDFTLTISRLEPEDFAVYYCQQNGNSPYTFGQGTKLEIK", "binding result": "binds"}, {"binder": "MY006-2F8 Fab Lf (Fab, V domains shown, Germlined variant, IgG1-Fab format; also called 2F8 Lf) VH: EVQLVESGGGLVKPGGSLRLSCAASGFIFSDYNMNWVRQAPGKGLEWVSSITRSSRTIYYADSVKGRFTISRDNAKNSLHLQMNSLRDADTAVYYCAREDFDVSTGPYYMDVWGNGTTVIVSS VL: EIVLTQSPGTLSLSPGERATLSCRASQSVSNMFLVWYQQKPGQAPRLLIYGASTRATGIPDRFSGSGSGTDFTLTISRLEPEDFAVYYCQQNGNSPYTFGQGTKLEIK", "binding result": "binds"}, {"binder": "MY006-2F8 Fab Hg Lg (Fab, V domains shown, Germlined variant, IgG1-Fab format) VH: EVQLVESGGGLVQPGGSLRLSCAASGFIFSDYNMNWVRQAPGKGLEWVSSITRSSRTIYYADSVKGRFTISRDNAKNSLYLQMNSLRDEDTAVYYCAREDFDVSTGPYYMDVWGKGTTVTVSS VL: EIVLTQSPGTLSLSPGERATLSCRASQSVSNMFLVWYQQKPGQAPRLLMYGASTRATGIPDRFSGSGSGTDFTLTISRLEPEDFAVYYCQQNGNSPYTFGQGTKLEIK", "binding result": "binds"}, {"binder": "MY006-15E3 Fab Hg Lg (Fab, V domains shown, Germlined variant, IgG1-Fab format) VH: EVQLVESGGGLVQPGGSLRLSCAASGFKFSTFYMTWIRQAPGKGLEWVANIKQDGSEKDYLDSVRGRFTISRDNAKSSLYLQMNSLRAEDTAVYYCTRNGLQDSYSGDFFDHWGQGTLVTVSS VL: QSVLTQPPSVSAAPGQKVTISCSGTGSNIGHNYVSWYQQLPGTAPKLLIFDNTKRPSGIPDRFSGSKSGSSATLGITGLQTGDEADYFCATWDADLSAVLFGGGTKLTVL", "binding result": "binds"}, {"binder": "MY006-15E3 Fab Lf (Fab, V domains shown, Germlined variant, IgG1-Fab format; also called 15E3 Lf) VH: EVQLVESGGALVQPGGSLRLSCAASGFKFSTFYMTWIRQAPGKGLEWVANIKQDGSEKDYLDSVRGRFNISRDNAKSVLYLQMNTLSADDTGVYYCTRNGLQDSYSGDFFDHWGQGILVTVSS VL: QSVLTQPPSVSAAPGQKVTISCSGTGSNIGHNYVSWYQQLPGTAPKLLIYDNTKRPSGIPDRFSGSKSGTSATLGITGLQTGDEADYYCATWDADLSAVLFGGGTKLTVL", "binding result": "binds"}, {"binder": "MY006-15E3 Fab Hf (Fab, V domains shown, Germlined variant, IgG1-Fab format; also called 15E3 Hf) VH: EVQLVESGGGLVQPGGSLRLSCAASGFKFSTFYMTWVRQAPGKGLEWVANIKQDGSEKDYLDSVRGRFTISRDNAKNSLYLQMNSLRAEDTAVYYCTRNGLQDSYSGDFFDHWGQGTLVTVSS VL: QSVLTQPPSISAAPGQKVTISCSGTGSNIGHNYVSWYQQLPRTAPRLLIFDNTKRPSGIPDRFSGSKSGSSATLGITGLQTGDEAHYFCATWDADLSAVLFGGGTKLTVL", "binding result": "binds"}, {"binder": "MY006-15E3 Fab Lg (Fab, V domains shown, Germlined variant, IgG1-Fab format; also called 15E3 Lg) VH: EVQLVESGGALVQPGGSLRLSCAASGFKFSTFYMTWIRQAPGKGLEWVANIKQDGSEKDYLDSVRGRFNISRDNAKSVLYLQMNTLSADDTGVYYCTRNGLQDSYSGDFFDHWGQGILVTVSS VL: QSVLTQPPSVSAAPGQKVTISCSGTGSNIGHNYVSWYQQLPGTAPKLLIFDNTKRPSGIPDRFSGSKSGSSATLGITGLQTGDEADYFCATWDADLSAVLFGGGTKLTVL", "binding result": "binds"}, {"binder": "MY006-15E3 Fab Hg (Fab, V domains shown, Germlined variant, IgG1-Fab format; also called 15E3 Hg) VH: EVQLVESGGGLVQPGGSLRLSCAASGFKFSTFYMTWIRQAPGKGLEWVANIKQDGSEKDYLDSVRGRFTISRDNAKSSLYLQMNSLRAEDTAVYYCTRNGLQDSYSGDFFDHWGQGTLVTVSS VL: QSVLTQPPSISAAPGQKVTISCSGTGSNIGHNYVSWYQQLPRTAPRLLIFDNTKRPSGIPDRFSGSKSGSSATLGITGLQTGDEAHYFCATWDADLSAVLFGGGTKLTVL", "binding result": "binds"}, {"binder": "MY006-15E3 Fab Hf Lg (Fab, V domains shown, Germlined variant, IgG1-Fab format; also called 15E3: Hf/Lg) VH: EVQLVESGGGLVQPGGSLRLSCAASGFKFSTFYMTWVRQAPGKGLEWVANIKQDGSEKDYLDSVRGRFTISRDNAKNSLYLQMNSLRAEDTAVYYCTRNGLQDSYSGDFFDHWGQGTLVTVSS VL: QSVLTQPPSVSAAPGQKVTISCSGTGSNIGHNYVSWYQQLPGTAPKLLIFDNTKRPSGIPDRFSGSKSGSSATLGITGLQTGDEADYFCATWDADLSAVLFGGGTKLTVL", "binding result": "binds"}, {"binder": "MY006-15E3 Fab Hf Lf (Fab, V domains shown, Germlined variant, IgG1-Fab format) VH: EVQLVESGGGLVQPGGSLRLSCAASGFKFSTFYMTWVRQAPGKGLEWVANIKQDGSEKDYLDSVRGRFTISRDNAKNSLYLQMNSLRAEDTAVYYCTRNGLQDSYSGDFFDHWGQGTLVTVSS VL: QSVLTQPPSVSAAPGQKVTISCSGTGSNIGHNYVSWYQQLPGTAPKLLIYDNTKRPSGIPDRFSGSKSGTSATLGITGLQTGDEADYYCATWDADLSAVLFGGGTKLTVL", "binding result": "binds"}, {"binder": "MY006-15E3 Fab Hg Lf (Fab, V domains shown, Germlined variant, IgG1-Fab format) VH: EVQLVESGGGLVQPGGSLRLSCAASGFKFSTFYMTWIRQAPGKGLEWVANIKQDGSEKDYLDSVRGRFTISRDNAKSSLYLQMNSLRAEDTAVYYCTRNGLQDSYSGDFFDHWGQGTLVTVSS VL: QSVLTQPPSVSAAPGQKVTISCSGTGSNIGHNYVSWYQQLPGTAPKLLIYDNTKRPSGIPDRFSGSKSGTSATLGITGLQTGDEADYYCATWDADLSAVLFGGGTKLTVL", "binding result": "binds"}, {"binder": "MY006-7G6 Fab Hg Lg (Fab, V domains shown, Germlined variant, IgG1-Fab format) VH: QVQLVESGGGVVQPGRSLRLSCAASGIAFNDYTMHWVRRAPGKGLEWVAAISYGGTNKYYADSVKGRFTISRDSSKNTLYLQMNSLRAEDTAVYYCARDSGYRSLLHWGQGTLVTVSS VL: EIVLTQSPLSLPVTPGEPASISCRSSQSLVHRNGYNYLDWYLQKPGQSPQLLIYMASKRASGVPDRFSGSGSGTDFTLKISRVEAEDVGVYYCMQALQTWTFGQGTKVEIK", "binding result": "binds"}, {"binder": "MY006-7G6 Fab Hf Lf (Fab, V domains shown, Germlined variant, IgG1-Fab format) VH: QVQLVESGGGVVQPGRSLRLSCAASGIAFNDYTMHWVRQAPGKGLEWVAAISYGGTNKYYADSVKGRFTISRDNSKNTLYLQMNSLRAEDTAVYYCARDSGYRSLLHWGQGTLVTVSS VL: DIVMTQSPLSLPVTPGEPASISCRSSQSLVHRNGYNYLDWYLQKPGQSPQLLIYMASKRASGVPDRFSGSGSGTDFTLKISRVEAEDVGVYYCMQALQTWTFGQGTKVEIK", "binding result": "binds"}, {"binder": "MY006-7G6 Fab Lg (Fab, V domains shown, Germlined variant, IgG1-Fab format; also called 7G6 Lg) VH: QVQLVESGGGVVQPGRSLRLSCAASGIAFNDYTMHWVRRSPDKGLEWVAAISYGGTNKYYADSVKGRFTISRDSSKNTLFLQMDSLRVEDTAVYYCARDSGYRSLLHWGQGTLVTVSS VL: EIVLTQSPLSLPVTPGEPASISCRSSQSLVHRNGYNYLDWYLQKPGQSPQLLIYMASKRASGVPDRFSGSGSGTDFTLKISRVEAEDVGVYYCMQALQTWTFGQGTKVEIK", "binding result": "binds"}, {"binder": "MY006-7G6 Fab Hg (Fab, V domains shown, Germlined variant, IgG1-Fab format; also called 7G6 Hg) VH: QVQLVESGGGVVQPGRSLRLSCAASGIAFNDYTMHWVRRAPGKGLEWVAAISYGGTNKYYADSVKGRFTISRDSSKNTLYLQMNSLRAEDTAVYYCARDSGYRSLLHWGQGTLVTVSS VL: EIVLTQSPLSLPVTPGEPASISCRSSQSLVHRNGYNYLDWYLQKPGQSPQLLIYMASKRASGVPDRFSGSGSGTEFTLKISRVEAEDVGIYYCMQALQTWTFGQGTKVEVN", "binding result": "binds"}, {"binder": "MY006-7G6 Fab Hf Lg (Fab, V domains shown, Germlined variant, IgG1-Fab format; also called 7G6: Hf/Lg) VH: QVQLVESGGGVVQPGRSLRLSCAASGIAFNDYTMHWVRQAPGKGLEWVAAISYGGTNKYYADSVKGRFTISRDNSKNTLYLQMNSLRAEDTAVYYCARDSGYRSLLHWGQGTLVTVSS VL: EIVLTQSPLSLPVTPGEPASISCRSSQSLVHRNGYNYLDWYLQKPGQSPQLLIYMASKRASGVPDRFSGSGSGTDFTLKISRVEAEDVGVYYCMQALQTWTFGQGTKVEIK", "binding result": "binds"}, {"binder": "MY006-7G6 Fab Hf (Fab, V domains shown, Germlined variant, IgG1-Fab format; also called 7G6 Hf) VH: QVQLVESGGGVVQPGRSLRLSCAASGIAFNDYTMHWVRQAPGKGLEWVAAISYGGTNKYYADSVKGRFTISRDNSKNTLYLQMNSLRAEDTAVYYCARDSGYRSLLHWGQGTLVTVSS VL: EIVLTQSPLSLPVTPGEPASISCRSSQSLVHRNGYNYLDWYLQKPGQSPQLLIYMASKRASGVPDRFSGSGSGTEFTLKISRVEAEDVGIYYCMQALQTWTFGQGTKVEVN", "binding result": "binds"}, {"binder": "MY006-7G6 Fab Hg Lf (Fab, V domains shown, Germlined variant, IgG1-Fab format) VH: QVQLVESGGGVVQPGRSLRLSCAASGIAFNDYTMHWVRRAPGKGLEWVAAISYGGTNKYYADSVKGRFTISRDSSKNTLYLQMNSLRAEDTAVYYCARDSGYRSLLHWGQGTLVTVSS VL: DIVMTQSPLSLPVTPGEPASISCRSSQSLVHRNGYNYLDWYLQKPGQSPQLLIYMASKRASGVPDRFSGSGSGTDFTLKISRVEAEDVGVYYCMQALQTWTFGQGTKVEIK", "binding result": "binds"}, {"binder": "MY006-7G6 Fab Lf (Fab, V domains shown, Germlined variant, IgG1-Fab format; also called 7G6 Lf) VH: QVQLVESGGGVVQPGRSLRLSCAASGIAFNDYTMHWVRRSPDKGLEWVAAISYGGTNKYYADSVKGRFTISRDSSKNTLFLQMDSLRVEDTAVYYCARDSGYRSLLHWGQGTLVTVSS VL: DIVMTQSPLSLPVTPGEPASISCRSSQSLVHRNGYNYLDWYLQKPGQSPQLLIYMASKRASGVPDRFSGSGSGTDFTLKISRVEAEDVGVYYCMQALQTWTFGQGTKVEIK", "binding result": "binds"}]}]}
